Assay results published in patent US20220332804A1 (CSL INNOVATION, published 2022).
Positions count from the first letter of the chain named.

Assays:
Assay in all cases: SPR; KD relative to WT C2;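 also: biacore SPR at 37 °C, anti-C2 mAbs captured on an anti-human IgG chip, alanine or serine C2 surface mutants tested, KD from 1:1 fit compared with wild-type C2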
human C2 K244A = target: T1, human C2 K244A (human, UniProt P06681 21-752)
T1 sequence: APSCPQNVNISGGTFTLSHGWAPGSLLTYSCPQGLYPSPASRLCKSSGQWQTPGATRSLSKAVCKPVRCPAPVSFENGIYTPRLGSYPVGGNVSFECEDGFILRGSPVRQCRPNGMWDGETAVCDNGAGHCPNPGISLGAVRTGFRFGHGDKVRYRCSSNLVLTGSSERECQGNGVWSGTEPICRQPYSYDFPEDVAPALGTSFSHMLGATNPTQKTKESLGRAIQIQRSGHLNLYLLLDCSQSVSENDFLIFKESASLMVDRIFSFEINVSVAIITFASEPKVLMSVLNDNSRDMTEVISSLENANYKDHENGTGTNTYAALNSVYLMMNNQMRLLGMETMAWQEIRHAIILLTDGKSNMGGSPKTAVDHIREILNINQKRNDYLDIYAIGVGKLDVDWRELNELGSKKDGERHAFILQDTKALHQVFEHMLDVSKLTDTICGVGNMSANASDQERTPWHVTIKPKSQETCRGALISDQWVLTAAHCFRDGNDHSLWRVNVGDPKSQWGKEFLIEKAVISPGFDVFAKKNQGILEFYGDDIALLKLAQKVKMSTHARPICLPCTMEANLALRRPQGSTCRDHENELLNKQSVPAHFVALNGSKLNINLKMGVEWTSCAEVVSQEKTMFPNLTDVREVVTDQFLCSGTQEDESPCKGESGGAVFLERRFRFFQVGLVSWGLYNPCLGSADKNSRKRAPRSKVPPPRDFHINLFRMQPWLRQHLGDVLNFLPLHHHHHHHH

human C2 D404A = target: T2, human C2 D404A (human, UniProt P06681 21-752)
T2 sequence: T1 sequence with A224K, D384A

human C2 E433A = target: T3, human C2 E433A (human, UniProt P06681 21-752)
T3 sequence: T1 sequence with A224K, E413A

human C2 A444S = target: T4, human C2 A444S (human, UniProt P06681 21-752)
T4 sequence: T1 sequence with A224K, A424S

B1: RF16-214 (antibody, V domains shown)
VH: EVQLLESGGGLVQPGGSLRLSCAASGFTFSWYQMMWVRQAPGKGLEWVSRIYPSGGGTAYADSVKGRFTISRDNSKNTLYLQMNSLRAEDTAVYYCARDAGYGDNWGQGTLVTVSS
VL: QSALTQPPSVSVSPGQTASITCSGDKLGEKYASWYQQKAGQSPVMVIYQDRKRPSGIPERFSGSNSGNTATLTISGTQAMDEADYYCQAWDTRAVVFGGGTKLTVLG
Human C2 K244A
  Fold diff: 3 fold
Human C2 D404A
  Fold diff: 3 fold
Human C2 E433A
  Fold diff: 1 fold
Human C2 A444S
  Fold diff: 1 fold
